Data: article doi:10.1101/484048
Where two headings read alike, the source gives them in different places.

Assays:
[1] = target: human methylmalonyl-CoA epimerase p.Arg143Cys variant (human) (UniProt Q96PE7); test: crystal structure
[2] = target: human methylmalonyl-CoA epimerase, wild type (human) (UniProt Q96PE7); test: crystal structure
[3] = target: human methylmalonyl-CoA epimerase, wild type (human) (UniProt Q96PE7)

| stoichiometry N [1] | stoichiometry N [2] | stoichiometry N [3] | Substance |
| --- | --- | --- | --- |
| 2 | – | – | human methylmalonyl-CoA epimerase p.Arg143Cys variant (from UniProt Q96PE7 45-176) (enzyme) |
| – | 2 | 2 | human methylmalonyl-CoA epimerase, wild type (from UniProt Q96PE7 45-176) (enzyme) |
